The results in this text go back to patent US20200147120A1 (NATIONAL UNIVERSITY CORPORATION CHIBA UNIVERSITY, published 2020).

One test deals with BRG1 (human, UniProt P51532 1-1647). Briefly: binding test of DPF2 truncation mutants; format not described.
In the next test the target is T1, Brm (human, UniProt P51531 1-1590, limits assumed).
T1 construct: also called hBRM
The description is as above.

BRG1, sequence (P51532 whole entry, the tested form may be a part): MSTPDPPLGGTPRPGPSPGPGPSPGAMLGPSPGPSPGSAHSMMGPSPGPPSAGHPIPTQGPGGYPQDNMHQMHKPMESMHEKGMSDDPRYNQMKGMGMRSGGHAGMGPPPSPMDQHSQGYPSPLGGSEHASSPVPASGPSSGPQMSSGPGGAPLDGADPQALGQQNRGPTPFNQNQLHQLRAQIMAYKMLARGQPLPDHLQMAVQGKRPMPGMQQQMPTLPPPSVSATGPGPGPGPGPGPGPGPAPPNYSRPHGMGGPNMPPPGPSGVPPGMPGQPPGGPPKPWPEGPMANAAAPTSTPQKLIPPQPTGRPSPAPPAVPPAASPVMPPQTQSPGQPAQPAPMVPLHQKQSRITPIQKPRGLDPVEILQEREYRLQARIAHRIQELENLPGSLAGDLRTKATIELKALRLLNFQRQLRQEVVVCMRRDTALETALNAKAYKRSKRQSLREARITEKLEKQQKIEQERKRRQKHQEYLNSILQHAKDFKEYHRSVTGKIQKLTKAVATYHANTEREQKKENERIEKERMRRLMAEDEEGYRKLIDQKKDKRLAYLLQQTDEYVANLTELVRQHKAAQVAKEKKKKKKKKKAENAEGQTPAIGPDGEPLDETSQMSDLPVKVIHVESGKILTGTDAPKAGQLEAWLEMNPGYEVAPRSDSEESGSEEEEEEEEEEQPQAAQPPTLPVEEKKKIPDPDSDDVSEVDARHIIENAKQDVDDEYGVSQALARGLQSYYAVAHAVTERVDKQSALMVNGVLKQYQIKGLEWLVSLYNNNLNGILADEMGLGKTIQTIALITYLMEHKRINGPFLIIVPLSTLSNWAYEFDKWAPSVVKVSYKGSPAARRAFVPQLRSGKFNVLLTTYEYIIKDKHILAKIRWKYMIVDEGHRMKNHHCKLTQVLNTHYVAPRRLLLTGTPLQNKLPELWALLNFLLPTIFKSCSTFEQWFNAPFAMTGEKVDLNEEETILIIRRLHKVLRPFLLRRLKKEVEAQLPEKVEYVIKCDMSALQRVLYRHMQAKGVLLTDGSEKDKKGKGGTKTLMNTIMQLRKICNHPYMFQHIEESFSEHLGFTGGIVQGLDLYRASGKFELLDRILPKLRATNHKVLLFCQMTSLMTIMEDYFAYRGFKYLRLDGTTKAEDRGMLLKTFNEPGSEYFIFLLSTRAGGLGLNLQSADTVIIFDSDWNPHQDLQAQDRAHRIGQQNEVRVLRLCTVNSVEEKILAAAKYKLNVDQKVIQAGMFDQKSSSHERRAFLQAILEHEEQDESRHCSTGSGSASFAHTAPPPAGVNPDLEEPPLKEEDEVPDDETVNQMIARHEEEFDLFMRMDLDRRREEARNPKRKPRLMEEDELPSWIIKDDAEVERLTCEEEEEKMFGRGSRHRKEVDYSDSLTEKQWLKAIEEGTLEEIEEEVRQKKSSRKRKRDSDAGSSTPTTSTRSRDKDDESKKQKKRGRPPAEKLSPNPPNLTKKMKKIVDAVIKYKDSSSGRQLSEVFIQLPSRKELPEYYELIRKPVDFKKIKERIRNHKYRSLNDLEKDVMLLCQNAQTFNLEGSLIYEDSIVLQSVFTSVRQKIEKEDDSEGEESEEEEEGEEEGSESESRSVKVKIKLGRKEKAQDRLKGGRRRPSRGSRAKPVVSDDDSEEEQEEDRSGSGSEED
T1 sequence (P51531 whole entry): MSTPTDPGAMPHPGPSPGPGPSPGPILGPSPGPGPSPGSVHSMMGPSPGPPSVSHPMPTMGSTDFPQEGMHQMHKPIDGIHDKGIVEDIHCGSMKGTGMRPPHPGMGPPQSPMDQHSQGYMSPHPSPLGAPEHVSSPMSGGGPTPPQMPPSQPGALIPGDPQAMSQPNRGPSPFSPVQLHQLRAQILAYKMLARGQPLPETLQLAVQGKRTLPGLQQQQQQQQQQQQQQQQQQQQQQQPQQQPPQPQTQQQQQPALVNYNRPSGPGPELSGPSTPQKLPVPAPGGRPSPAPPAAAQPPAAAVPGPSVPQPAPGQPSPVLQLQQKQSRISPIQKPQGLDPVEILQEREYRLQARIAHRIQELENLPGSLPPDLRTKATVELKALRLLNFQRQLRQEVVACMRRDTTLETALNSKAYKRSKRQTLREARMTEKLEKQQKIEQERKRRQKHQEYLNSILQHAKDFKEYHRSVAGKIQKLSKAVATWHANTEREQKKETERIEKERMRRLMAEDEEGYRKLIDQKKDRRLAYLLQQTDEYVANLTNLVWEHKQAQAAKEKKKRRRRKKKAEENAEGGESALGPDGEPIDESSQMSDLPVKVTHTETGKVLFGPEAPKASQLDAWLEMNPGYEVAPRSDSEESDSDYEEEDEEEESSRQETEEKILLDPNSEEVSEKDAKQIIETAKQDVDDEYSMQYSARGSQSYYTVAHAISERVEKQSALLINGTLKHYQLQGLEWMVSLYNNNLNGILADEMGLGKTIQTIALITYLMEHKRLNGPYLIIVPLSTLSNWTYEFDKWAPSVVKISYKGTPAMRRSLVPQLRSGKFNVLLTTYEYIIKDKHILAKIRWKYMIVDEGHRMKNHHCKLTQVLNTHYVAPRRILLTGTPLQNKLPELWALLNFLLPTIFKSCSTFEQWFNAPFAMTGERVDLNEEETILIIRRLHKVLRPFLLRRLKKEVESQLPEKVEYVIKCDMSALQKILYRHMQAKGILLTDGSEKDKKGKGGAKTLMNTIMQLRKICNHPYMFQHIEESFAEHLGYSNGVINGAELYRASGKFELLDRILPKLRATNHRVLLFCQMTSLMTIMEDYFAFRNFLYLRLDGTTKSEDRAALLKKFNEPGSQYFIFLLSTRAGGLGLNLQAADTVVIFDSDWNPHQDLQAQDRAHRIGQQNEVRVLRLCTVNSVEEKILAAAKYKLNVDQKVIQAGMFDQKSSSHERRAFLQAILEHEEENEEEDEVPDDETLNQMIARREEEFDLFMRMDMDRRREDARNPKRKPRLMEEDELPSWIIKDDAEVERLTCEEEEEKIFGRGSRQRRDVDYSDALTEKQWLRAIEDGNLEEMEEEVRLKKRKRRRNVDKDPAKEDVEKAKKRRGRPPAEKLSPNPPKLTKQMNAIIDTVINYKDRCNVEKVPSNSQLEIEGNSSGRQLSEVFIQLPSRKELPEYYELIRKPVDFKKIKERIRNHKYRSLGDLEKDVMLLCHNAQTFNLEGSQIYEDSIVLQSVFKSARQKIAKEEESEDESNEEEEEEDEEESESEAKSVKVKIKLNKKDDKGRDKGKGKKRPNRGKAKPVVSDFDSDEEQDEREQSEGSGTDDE

B1: DPF2-CT1 (CT1 peptide of DPF2, amino acid residues 1 to 84) (peptide)
peptide: MAAVVENVVKLLGEQYYKDAMEQCHNYNARLCAERSVRLPFLDSQTGVAQSNCYIWMEKRHRGPGLASGQLYSYPARRWRKKRR
notes: One of a series of truncation mutants of DPF2
In the case of B1, the binding result with BRG1 and with Brm was “binds” throughout.
